From IntAct's records for PubMed 28712572

B1: Gamma-aminobutyric acid receptor-associated protein (Homo sapiens), O95166 (parent)
chain: MKFVYKEEHPFEKRRSEGEKIRKKYPDRVPVIVEKAPKARIGDLDKKKYLVPSDLTVGQFYFLIRKRIHLRAEDALFFFVNNVIPPTSATMGQLYQEHHEEDFFLYIAYSDESVYGL

Variants of: B1
Conditions: with pcm1_human PCM1, Q15154
Sequence of pcm1_human PCM1, Q15154 (Q15154 whole entry): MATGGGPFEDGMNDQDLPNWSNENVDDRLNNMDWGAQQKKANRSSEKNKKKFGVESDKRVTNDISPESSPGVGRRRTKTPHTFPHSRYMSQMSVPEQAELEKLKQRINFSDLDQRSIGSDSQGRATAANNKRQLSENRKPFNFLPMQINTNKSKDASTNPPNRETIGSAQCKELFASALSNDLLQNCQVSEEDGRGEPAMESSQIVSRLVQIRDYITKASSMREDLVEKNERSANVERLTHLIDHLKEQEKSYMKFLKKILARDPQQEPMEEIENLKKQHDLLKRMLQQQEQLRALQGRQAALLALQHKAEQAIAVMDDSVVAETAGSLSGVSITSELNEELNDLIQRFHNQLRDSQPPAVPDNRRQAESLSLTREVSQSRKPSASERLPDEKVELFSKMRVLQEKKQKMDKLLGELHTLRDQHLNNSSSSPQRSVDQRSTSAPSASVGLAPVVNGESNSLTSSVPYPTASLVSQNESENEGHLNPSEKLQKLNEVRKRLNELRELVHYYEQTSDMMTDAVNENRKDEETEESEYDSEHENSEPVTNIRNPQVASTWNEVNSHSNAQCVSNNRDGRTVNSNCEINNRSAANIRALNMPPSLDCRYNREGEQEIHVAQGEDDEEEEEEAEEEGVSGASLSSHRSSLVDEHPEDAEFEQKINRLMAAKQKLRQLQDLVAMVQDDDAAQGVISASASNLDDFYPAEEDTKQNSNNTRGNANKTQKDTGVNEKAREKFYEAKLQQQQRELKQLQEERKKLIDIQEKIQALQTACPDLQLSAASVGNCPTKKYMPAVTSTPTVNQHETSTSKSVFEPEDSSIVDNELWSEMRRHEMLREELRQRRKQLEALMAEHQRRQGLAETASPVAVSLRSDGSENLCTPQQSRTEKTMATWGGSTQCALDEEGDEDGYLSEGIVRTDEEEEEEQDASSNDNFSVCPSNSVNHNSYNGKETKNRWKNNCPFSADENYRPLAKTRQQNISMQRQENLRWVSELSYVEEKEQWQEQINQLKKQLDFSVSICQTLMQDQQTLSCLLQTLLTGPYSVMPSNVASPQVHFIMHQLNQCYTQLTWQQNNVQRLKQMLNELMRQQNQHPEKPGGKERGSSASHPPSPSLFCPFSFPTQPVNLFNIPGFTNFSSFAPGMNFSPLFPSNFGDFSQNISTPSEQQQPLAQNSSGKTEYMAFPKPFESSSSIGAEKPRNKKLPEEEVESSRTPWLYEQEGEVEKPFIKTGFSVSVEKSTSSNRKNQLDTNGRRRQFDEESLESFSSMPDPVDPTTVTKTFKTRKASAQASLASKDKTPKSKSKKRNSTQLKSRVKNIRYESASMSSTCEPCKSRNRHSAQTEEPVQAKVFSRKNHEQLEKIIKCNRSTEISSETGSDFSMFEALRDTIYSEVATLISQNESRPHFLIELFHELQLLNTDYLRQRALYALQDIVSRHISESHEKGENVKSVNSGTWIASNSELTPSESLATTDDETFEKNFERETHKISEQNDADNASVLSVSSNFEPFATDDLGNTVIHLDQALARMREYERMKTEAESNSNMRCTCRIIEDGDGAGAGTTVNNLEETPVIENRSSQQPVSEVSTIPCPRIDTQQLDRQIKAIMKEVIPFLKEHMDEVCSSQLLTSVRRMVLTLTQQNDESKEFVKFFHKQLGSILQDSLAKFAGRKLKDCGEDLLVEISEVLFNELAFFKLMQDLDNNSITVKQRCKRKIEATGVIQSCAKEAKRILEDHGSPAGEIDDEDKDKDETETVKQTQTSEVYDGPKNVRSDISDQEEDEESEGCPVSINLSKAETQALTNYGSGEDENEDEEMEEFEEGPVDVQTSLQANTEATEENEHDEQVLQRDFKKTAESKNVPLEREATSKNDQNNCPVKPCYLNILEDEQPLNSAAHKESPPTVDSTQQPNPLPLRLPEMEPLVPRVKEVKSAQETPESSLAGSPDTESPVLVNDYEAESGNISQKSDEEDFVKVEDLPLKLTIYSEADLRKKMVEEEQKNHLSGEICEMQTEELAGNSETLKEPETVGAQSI

Row | effect of a mutation on the interaction | Variant
1 | with no effect | G116A
